Source: PMC3169740

Target: fluorescein-labeled SC pseudorepeat-repeat-1 peptide PR-R1[5F] (S. aureus)
Assay: other fluorescence titration

## fibrinogen fragment D (domain or fragment)
  Kd: 36 nM
  stoichiometry N (mol of fragment D/mol of peptide): 0.77
